Substrate in the data set: OC[C@H]1O[C@@H](O)[C@H](O)[C@@H](O)[C@@H]1O
Kind of data set: GOx activity assay, glucose oxidase-horseradish peroxidase coupled system with o-dianisidine. The format is biochemical, Aspergillus niger. The conditions noted are these: other: control, glucose conversion; 37.0 °C.

B1: glucose oxidase (GOx) (Aspergillus niger) (protein)
chain: LPHYIRSNGIEASLLTDPKDVSGRTVDYIIAGGGLTGLTTAARLTENPNISVLVIESGSYESDRGPIIEDLNAYGDIFGSSVDHAYETVELATNNQTALIRSGNGLGGSTLVNGGTWTRPHKAQVDSWETVFGNEGWNWDNVAAYSLQAERARAPNAKQIAAGHYFNASCHGVNGTVHAGPRDTGDDYSPIVKALMSAVEDRGVPTKKDFGCGDPHGVSMFPNTLHEDQVRSDAAREWLLPNYQRPNLQVLTGQYVGKVLLSQNGTTPRAVGVEFGTHKGNTHNVYAKHEVLLAAGSAVSPTILEYSGIGMKSILEPLGIDTVVDLPVGLNLQDQTTATVRSRITSAGAGQGQAAWFATFNETFGDYSEKAHELLNTKLEQWAEEAVARGGFHNTTALLIQYENYRDWIVNHNVAYSELFLDTAGVASFDVWDLLPFTRGYVHILDKDPYLHHFAYDPQYFLNELDLLGQAAATQLARNISNSGAMQTYFAGETIPGDNLAYDADLSAWTEYIPYHFRPNYHGVGTCSMMPKEMGGVVDNAARVYGVQGLRVIDGSIPPTQMSSHVMTVFYAMALKISDAILEDYASMQ
notes: purchased Sigma Aldrich
Take B1: the Michaelis-Menten constant (Km) is reported as 15 ± 2 mM and the kcat amounted to 0.00233 ± 0.00017 s⁻¹.

Source of the values: article PMC7794297.
